For the assay, the target named is myc-tagged TRIM25 WT (tripartite motif-containing protein 25), Q14258. Kind of assay: co-IP; myc IP (anti-myc beads) of myc-TRIM25 WT from lysates of ZAP KO 293T cells co-transfected with FLAG-ZAPS or FLAG-ZAPL WT or mutants; FLAG-ZAP detected by immunoblot; FLAG IP buffer (100 mM Tris-HCl 8.0, 150 mM NaCl, 5 mM EDTA, 1 mM DTT, 5% glycerol, 0.1% NP-40), 4°C, 45 min; FLAG IP band divided by myc IP band (ImageJ). Conditions: remark: other sources report otherwise.
Sequence of myc-tagged TRIM25 WT (tripartite motif-containing protein 25), Q14258 (Q14258 whole entry): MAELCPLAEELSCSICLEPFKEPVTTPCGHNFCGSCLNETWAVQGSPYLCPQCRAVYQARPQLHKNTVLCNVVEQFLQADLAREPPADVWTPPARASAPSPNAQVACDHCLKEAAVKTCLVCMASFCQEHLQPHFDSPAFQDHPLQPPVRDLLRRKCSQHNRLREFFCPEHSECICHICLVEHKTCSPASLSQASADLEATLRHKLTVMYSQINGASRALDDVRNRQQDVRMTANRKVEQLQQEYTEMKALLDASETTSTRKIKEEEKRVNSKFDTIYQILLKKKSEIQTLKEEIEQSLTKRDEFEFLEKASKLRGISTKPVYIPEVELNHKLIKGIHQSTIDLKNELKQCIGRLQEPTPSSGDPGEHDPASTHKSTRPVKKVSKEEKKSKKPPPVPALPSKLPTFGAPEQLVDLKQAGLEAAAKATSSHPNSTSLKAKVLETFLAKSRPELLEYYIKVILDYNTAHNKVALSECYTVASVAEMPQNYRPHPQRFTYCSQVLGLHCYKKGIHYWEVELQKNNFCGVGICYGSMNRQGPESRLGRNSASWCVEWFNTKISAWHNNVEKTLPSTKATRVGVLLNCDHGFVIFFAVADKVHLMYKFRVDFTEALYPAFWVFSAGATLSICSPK

“And” between values parts separate entries of the source, which are not always exact repeats. Equal values may be shown once.

B1: FLAG-tagged ZAPS WT (zinc finger antiviral protein, short isoform), Q7Z2W4-2 1-699 (natural protein)
chain: MADPEVCCFITKILCAHGGRMALDALLQEIALSEPQLCEVLQVAGPDRFVVLETGGEAGITRSVVATTRARVCRRKYCQRPCDNLHLCKLNLLGRCNYSQSERNLCKYSHEVLSEENFKVLKNHELSGLNKEELAVLLLQSDPFFMPEICKSYKGEGRQQICNQQPPCSRLHICDHFTRGNCRFPNCLRSHNLMDRKVLAIMREHGLNPDVVQNIQDICNSKHMQKNPPGPRAPSSHRRNMAYRARSKSRDRFFQGSQEFLASASASAERSCTPSPDQISHRASLEDAPVDDLTRKFTYLGSQDRARPPSGSSKATDLGGTSQAGTSQRFLENGSQEDLLHGNPGSTYLASNSTSAPNWKSLTSWTNDQGARRKTVFSPTLPAARSSLGSLQTPEAVTTRKGTGLLSSDYRIINGKSGTQDIQPGPLFNNNADGVATDITSTRSLNYKSTSSGHREISSPRIQDAGPASRDVQATGRIADDADPRVALVNDSLSDVTSTTSSRVDDHDSEEICLDHLCKGCPLNGSCSKVHFHLPYRWQMLIGKTWTDFEHMETIEKGYCNPGIHLCSVGSYTINFRVMSCDSFPIRRLSTPSSVTKPANSVFTTKWIWYWKNESGTWIQYGEEKDKRKNSNVDSSYLESLYQSCPRGVVPFQAGSRNYELSFQGMIQTNIASKTQKDVIRRPTFVPQWYVQQMKRGPE
On to B1, for which the ZAP-TRIM25 interaction (co-IP, FLAG-ZAP band over myc-TRIM25 band, ImageJ) is 0.131 and 0.304.

Source of the values: paper PMC9253567.
